{"source": "paper PMC12554172", "about": "“Systematic analysis of the RGS2 degron reveals characteristics of substrate recognition by the F-box protein FBXO44” (The Journal of Biological Chemistry, 2025)", "key": {"HEK-293T cells [1]": {"tested_on": "HEK-293T cells", "assay": "Cycloheximide (CHX) chase assay", "format": "cell-based, human", "settings": "for RGS2 protein half-life (t1/2): CHX 50 μM, Western blot, three independent experiments", "description": "HEK-293T cells in 12-well plates, transiently transfected with either RGS2^WT or RGS2^C13S, were treated with CHX (50 μM) at indicated time points. Cells were harvested as described later and subjected to SDS-PAGE and Western blot.\n(§1) Cells were harvested on ice in lysis buffer containing protease inhibitors (50 mM Tris–HCl [pH 7.4], 5 mM NaCl, 0.5 mM EDTA, 1% Triton X-100, 10% cOmplete Protease Inhibitor Cocktail EDTA-free). Lysates were bath sonicated for 10 min at 4 °C, centrifuged at 6000g for 3 min, and the supernatant was used for SDS-PAGE and immunoblotting. Total protein concentration was determined using the Pierce BCA Protein Assay Kit. Samples were diluted to 1 μg/μl in protein sample loading buffer (Li-Cor Biosciences).\n(§2) Equal amounts of protein in each lane were resolved on a 12% SDS-PAGE gel for 1 h at 160 V. Samples were transferred to an Immobilon-FL PVDF membrane (Millipore) and subjected to Western immunoblot analysis using Li-Cor blocking buffer for both blocking and antibody diluents. Membranes were blocked for 1 h, then incubated for 2 h in primary antibodies as described under “Antibodies,” and finally incubated for 1 h with IRDye secondary antibodies directed at the species of the primary antibody. Following each antibody incubation, membranes were washed four times in PBS with 0.1% Tween-20. Membranes were imaged using an Azure600 imaging system (Azure Biosystems)."}, "HEK-293T cells [2]": {"tested_on": "HEK-293T cells", "assay": "RGS2 protein levels, baseline and with proteasome inhibitor MG-132", "format": "cell-based, human", "settings": "for change of RGS2 protein levels with MG-132 / change of RGS2 protein levels with MG-132 (Fig. S4): MG-132 10 μM, 4 h", "from_the_text": "Representative Western blot and quantification of three independent experiments. […] Representative Western blot and quantification of three independent experiments. Representative Western blot (D), quantification of knockdown efficiency (E), and effects on RGS protein levels (F) when FBXO44 is knocked down using siRNA. […] Result of three independent experiments. ∗p < 0.05; ∗∗p < 0.01; ∗∗∗p < 0.001 using two-way ANOVA followed by Tukey's post hoc test for pairwise comparisons (C, E, and F). FBXO44, F-box only protein 44; HEK-293T, human embryonic kidney-293T cell line; RGS2, regulator of G protein signaling 2.\nas §1, §2\nFigure S4. Effect of RGS2 mutations on protein stability. Representative western blot and quantification of five or six independent experiments (varies by mutation). The proteasome inhibitor MG-132 (10 μM, 4 h) […]\nP15R were predicted to destabilize RGS2, due to increased binding to FBXO44 in the peptide microarray. […]\nsignificant. *P<0.05; ***P<0.001 using two-way ANOVA followed by Tukey’s post hoc test for pairwise"}, "FBXO44 [3]": {"tested_on": "FBXO44", "assay": "siRNA-mediated FBXO44 knockdown, Western blot", "format": "cell-based, human", "settings": "HEK-293T cells; for RGS2 protein levels upon FBXO44 knockdown: FBXO44 siRNA, Fig. 7, D and F, three independent experiments", "description": "Using a pool of 4 siRNA oligos (siGENOME SMART Pools; Dharmacon/Revvity), we achieved ∼70% reduction in endogenous FBXO44 protein levels in HEK-293T cells (Fig. 7, D and E).\nCells were maintained in a humidified incubator at 37 °C with 5% CO2. HEK-293T cells were obtained from the American Type Culture Collection (ATCC; CRL-1573). The American Type Culture Collection cell lines are subjected to comprehensive and repeated authentication and contamination checks, ensuring confirmation of cell line identity and ensuring that it is free of contamination prior to supplying it to users. Cells underwent periodical (every 6 months) mycoplasma testing to ensure cell lines are not compromised. Cells were cultured in Dulbecco's modified Eagle's medium (Gibco, catalog no.: 11995) and supplemented with 10% fetal bovine serum (Gibco, catalog no.: 16000). Cells were transfected with DNA plasmids using Lipofectamine 3000 (Invitrogen) under reduced serum conditions in Opti-MEM (Gibco, catalog no.: 31985). Media were changed to Dulbecco's modified Eagle's medium supplemented with 0.5% fetal bovine serum after 4 to 6 h, and cells were harvested for experiments 24 h after transfection. siRNA transfections were performed under reduced serum conditions in Opti-MEM 24 h prior to DNA transfections at 40% to 60% confluency. Cells were transfected with siGENOME SMART-POOL siRNA (FBXO44, M-019201-01-0005; Nontargeting, D-001206-13-05) from Dharmacon (Revvity) using Lipofectamine RNAiMAX (Invitrogen). Experiments were performed 72 h after transfection.\nas §1, with “Biosciences). […]” for “Biosciences).”"}, "FLAG-FBXO44": {"tested_on": "FLAG-FBXO44", "assay": "Coimmunoprecipitation of RGS2-HA mutant with FLAG-FBXO44", "format": "cell-based", "settings": "HEK-293T cells, HA tag IP, normalized to input, % of WT; four independent experiments", "description": "(§3) Figure 6 Point mutations disrupt the RGS2–FBXO44 association. Co-IP was performed in HEK-293T cells transiently transfected with RGS2-HA and FLAG-FBXO44 (WT and mutants as indicated). […] Representative blot and quantification of four independent experiments. […] Levels of each protein were normalized to input and expressed as % of WT. Representative blot and quantification of three independent experiments. ∗p < 0.05; ∗∗∗∗p < 0.0001 using Student's unpaired t test. Co-IP, coimmunoprecipitation; FBXO44, F-box only protein 44; RGS2, regulator of G protein signaling 2.\n(§4) Cells were maintained in a humidified incubator at 37 °C with 5% CO2. HEK-293T cells were obtained from the American Type Culture Collection (ATCC; CRL-1573). The American Type Culture Collection cell lines are subjected to comprehensive and repeated authentication and contamination checks, ensuring confirmation of cell line identity and ensuring that it is free of contamination prior to supplying it to users. Cells underwent periodical (every 6 months) mycoplasma testing to ensure cell lines are not compromised. Cells were cultured in Dulbecco's modified Eagle's medium (Gibco, catalog no.: 11995) and supplemented with 10% fetal bovine serum (Gibco, catalog no.: 16000). Cells were transfected with DNA plasmids using Lipofectamine 3000 (Invitrogen) under reduced serum conditions in Opti-MEM (Gibco, catalog no.: 31985). […]"}, "RGS2-HA": {"tested_on": "RGS2-HA", "assay": "Coimmunoprecipitation of FLAG-FBXO44 mutant with RGS2-HA", "format": "cell-based", "settings": "HEK-293T cells, HA tag IP, normalized to input, % of WT, three independent experiments", "description": "as §3, §4"}, "FBXO44 [4]": {"tested_on": "FBXO44", "settings": "ref [24]; cited from earlier work", "from_the_text": "However, evidence of a direct interaction between RGS2 and FBXO44 has, until now, not yet been established. Thus, we first aimed to verify that purified FBXO44 would bind the degron sequence in vitro. […] This also c ..."}, "[5]": {"settings": "Fig. 7, B and C, three independent experiments"}, "[6]": {"settings": "Fig. S4, five or six independent experiments"}}, "note": "Entries after “also recorded” stand apart in the source; their conditions may differ."}
{"molecule": "RGS2^WT: full-length wild-type RGS2 expressed in HEK-293T cells (protein, left off: HA, end not stated, kept, full-length wild-type RGS2 expressed in HEK-293T cells) MQSAMFLAVQHDCRPMDKSAGSGHKSEEKREKMKRTLLKDWKTRLSYFLQNSSTPGKPKTGKKSKQQAFIKPSPEEAQLWSEAFDELLASKYGLAAFRAFLKSEFCEENIEFWLACEDFKKTKSPQKLSSKARKIYTDFIEKEAPKEINIDFQTKTLIAQNIQEATSGCFTTAQKRVYSLMENNSYPRFLESEFYQDLCKKPQITTEPHAT", "values": [{"measurement": "RGS2 protein half-life (t1/2)", "setting": "HEK-293T cells [1]; transfected HEK-293T", "value": 19.5, "unit": "min"}, {"measurement": "change of RGS2 protein levels with MG-132", "setting": "HEK-293T cells [2]; [5]", "value": "significantly enhanced"}, {"measurement": "change of RGS2 protein levels with MG-132 (Fig. S4)", "setting": "HEK-293T cells [2]; [6]", "value": "significantly increases"}, {"measurement": "RGS2 protein levels upon FBXO44 knockdown", "setting": "FBXO44 [3]", "value": "significantly increases; also recorded: significant increase"}]}
{"molecule": "RGS2^C13S-HA: HA-tagged RGS2 with C13S mutation (protein, left off: HA, end not stated, kept, HA-tagged RGS2 with C13S mutation) MQSAMFLAVQHDSRPMDKSAGSGHKSEEKREKMKRTLLKDWKTRLSYFLQNSSTPGKPKTGKKSKQQAFIKPSPEEAQLWSEAFDELLASKYGLAAFRAFLKSEFCEENIEFWLACEDFKKTKSPQKLSSKARKIYTDFIEKEAPKEINIDFQTKTLIAQNIQEATSGCFTTAQKRVYSLMENNSYPRFLESEFYQDLCKKPQITTEPHAT", "values": [{"measurement": "association with FLAG-FBXO44 (co-IP)", "setting": "FLAG-FBXO44", "value": "significantly reduced association; also recorded: associates significantly less"}]}
{"molecule": "FLAG-FBXO44^Y234A: FLAG-tagged FBXO44 with Y234A mutation (protein, left off: FLAG, end not stated, kept, FLAG-tagged FBXO44 with Y234A mutation) MAVGNINELPENILLELFTHVPARQLLLNCRLVCSLWRDLIDLVTLWKRKCLREGFITEDWDQPVADWKIFYFLRSLHRNLLHNPCAEEGFEFWSLDVNGGDEWKVEDLSRDQRKEFPNDQVKKYFVTSYYTCLKSQVVDLKAEGYWEELMDTTRPDIEVKDWFAARPDCGSKYQLCVQLLSSAHAPLGTFQPDPATIQQKSDAKWREVSHTFSNYPPGVRYIWFQHGGVDTHAWAGWYGPRVTNSSITIGPPLP", "values": [{"measurement": "association with RGS2-HA (co-IP)", "setting": "RGS2-HA", "value": "associates significantly less"}, {"measurement": "association with RGS2-HA (co-IP)", "setting": "RGS2-HA; listed as FBXO44^Y234A", "value": "significantly reduced association"}]}
{"molecule": "RGS2^C13S: full-length RGS2 with C13S mutation (protein, left off: HA, end not stated, kept, full-length RGS2 with C13S mutation) MQSAMFLAVQHDSRPMDKSAGSGHKSEEKREKMKRTLLKDWKTRLSYFLQNSSTPGKPKTGKKSKQQAFIKPSPEEAQLWSEAFDELLASKYGLAAFRAFLKSEFCEENIEFWLACEDFKKTKSPQKLSSKARKIYTDFIEKEAPKEINIDFQTKTLIAQNIQEATSGCFTTAQKRVYSLMENNSYPRFLESEFYQDLCKKPQITTEPHAT", "values": [{"measurement": "extension of RGS2 protein half-life versus RGS2^WT", "setting": "HEK-293T cells [1]; CHX chase, RGS2^C13S versus RGS2^WT", "value": "almost twofold; also recorded: almost double that of RGS2^WT"}, {"measurement": "RGS2 protein stability versus RGS2^WT (in words)", "setting": "HEK-293T cells [1]; CHX chase, transfected HEK-293T", "value": "significantly stabilized"}, {"measurement": "RGS2 protein half-life (t1/2)", "setting": "HEK-293T cells [1]; transfected HEK-293T", "value": 33.5, "unit": "min"}, {"measurement": "change of RGS2 protein levels with MG-132", "setting": "HEK-293T cells [2]; [5]", "value": "not significantly changed; also recorded: does not significantly change"}, {"measurement": "basal RGS2 protein level versus RGS2^WT", "setting": "HEK-293T cells [2]; no MG-132, Fig. 7, B and C, three independent experiments", "value": "increased protein levels at baseline; however, this increase was not statistically significant; also recorded: upward trend in basal expression"}, {"measurement": "RGS2 protein levels upon FBXO44 knockdown", "setting": "FBXO44 [3]", "value": "significantly increases RGS2^WT but not RGS2^C13S protein levels; also recorded: significant increase in RGS2^WT but not RGS2^C13S protein levels"}, {"measurement": "RGS2^C13S expression level versus RGS2^WT in siRNA experiments", "setting": "FBXO44 [3]; Fig. 7F", "value": "significantly higher levels than RGS2^WT"}]}
{"molecule": "RGS2^D12R: full-length RGS2 with D12R mutation (protein, UniProt P41220 1-211, looked up, variant D12R, full-length, full-length RGS2 with D12R mutation) MQSAMFLAVQHRCRPMDKSAGSGHKSEEKREKMKRTLLKDWKTRLSYFLQNSSTPGKPKTGKKSKQQAFIKPSPEEAQLWSEAFDELLASKYGLAAFRAFLKSEFCEENIEFWLACEDFKKTKSPQKLSSKARKIYTDFIEKEAPKEINIDFQTKTLIAQNIQEATSGCFTTAQKRVYSLMENNSYPRFLESEFYQDLCKKPQITTEPHAT", "values": [{"measurement": "change of RGS2 protein levels with MG-132 (Fig. S4)", "setting": "HEK-293T cells [2]; [6]", "value": "none of these mutations resulted in significant changes in basal expression or response to MG-132"}, {"measurement": "basal RGS2 protein expression versus RGS2^WT (Fig. S4)", "setting": "HEK-293T cells [2]; no MG-132, Fig. S4, five or six independent experiments", "value": "trend toward lower basal expression"}]}
{"molecule": "RGS4: closely related RGS4, subject to proteasomal degradation by a different pathway (protein, UniProt P49798 1-205, looked up) Regulator of G-protein …: MCKGLAGLPASCLRSAKDMKHRLGFLLQKSDSCEHNSSHNKKDKVVICQRVSQEEVKKWAESLENLISHECGLAAFKAFLKSEYSEENIDFWISCEEYKKIKSPSKLSPKAKKIYNEFISVQATKEVNLDSCTREETSRNMLEPTITCFDEAQKKIFNLMEKDSYRRFLKSRFYLDLVNPSSCGAEKQKGAKSSADCASLVPQCA", "values": [{"measurement": "co-IP with FBXO44", "setting": "FBXO44 [4]", "value": "does not coimmunoprecipitate with FBXO44"}]}
